Experiments:
[1] = target: T1, DNA polymerase mu core domain K438A/Q441A (Homo sapiens, UniProt Q9NP87 136-494, K438A;Q441A;del398-410); experiment: X-ray crystallography; dGMPNPP, 10 mM Mg2+ (Complex 5); Crystals: protein (~7 mg/ml in 25 mM Tris/HCl pH 7.5, 100 mM KCl, 1 mM DTT) with DNA at 1:1.5; binary: 0.1 M sodium citrate pH 5.5, 18% 2-propanol, PEG4000; ternary: pH 6.5-8.0, PEG3350 or PEG10000; nucleotide/metal soak 4 h at 4 °C; conditions: protein: recombinant; tags: His (pET28a, nickel purified); template 9 nt + upstream primer 4 nt + downstream primer 4 nt; 1-nt gap; blunt outer ends
[2] = target: DNA polymerase mu core domain Q441A (Homo sapiens, UniProt Q9NP87 136-494, Q441A;del398-410); experiment: X-ray crystallography; dGMPNPP, 10 mM Mg2+ (Complex 4); Crystals: protein (~7 mg/ml in 25 mM Tris/HCl pH 7.5, 100 mM KCl, 1 mM DTT) with DNA at 1:1.5; binary: 0.1 M sodium citrate pH 5.5, 18% 2-propanol, PEG4000; ternary: pH 6.5-8.0, PEG3350 or PEG10000; nucleotide/metal soak 4 h at 4 °C; conditions: protein: recombinant; tags: His (pET28a, nickel purified); template 9 nt + upstream primer 4 nt + downstream primer 4 nt; 1-nt gap; blunt outer ends
[3] = target: T2, DNA polymerase mu core domain (WT) (Homo sapiens, UniProt Q9NP87 136-494, del398-410); experiment: X-ray crystallography; binary; Mg2+; Crystals: protein (~7 mg/ml in 25 mM Tris/HCl pH 7.5, 100 mM KCl, 1 mM DTT) with DNA at 1:1.5; binary: 0.1 M sodium citrate pH 5.5, 18% 2-propanol, PEG4000; ternary: pH 6.5-8.0, PEG3350 or PEG10000; nucleotide/metal soak 4 h at 4 °C; conditions: protein: recombinant; tags: His (pET28a, nickel purified); template 9 nt + upstream primer 4 nt + downstream primer 4 nt; 1-nt gap; blunt outer ends
[4] = target: T1, DNA polymerase mu core domain …; experiment: X-ray crystallography; post-insertion; second dGTP (10 mM soak), 10 mM Mg2+, Na+; Crystals: protein (~7 mg/ml in 25 mM Tris/HCl pH 7.5, 100 mM KCl, 1 mM DTT) with DNA at 1:1.5; binary: 0.1 M sodium citrate pH 5.5, 18% 2-propanol, PEG4000; ternary: pH 6.5-8.0, PEG3350 or PEG10000; nucleotide/metal soak 4 h at 4 °C; conditions: protein: recombinant; tags: His (pET28a, nickel purified); template 9 nt + extended primer 5 nt + downstream primer 4 nt; nascent dG displaced by second dGTP
[5] = target: T2, DNA polymerase mu core domain (WT); experiment: X-ray crystallography; dGMPNPP, 10 mM Mg2+ (Complex 1); Crystals: protein (~7 mg/ml in 25 mM Tris/HCl pH 7.5, 100 mM KCl, 1 mM DTT) with DNA at 1:1.5; binary: 0.1 M sodium citrate pH 5.5, 18% 2-propanol, PEG4000; ternary: pH 6.5-8.0, PEG3350 or PEG10000; nucleotide/metal soak 4 h at 4 °C; conditions: protein: recombinant; tags: His (pET28a, nickel purified); template 10 nt + upstream primer 4 nt + downstream primer 4 nt; 2-nt gap; blunt outer ends

T2 sequence (Q9NP87 other isoform, or with tags, fused parts or gaps del398-410): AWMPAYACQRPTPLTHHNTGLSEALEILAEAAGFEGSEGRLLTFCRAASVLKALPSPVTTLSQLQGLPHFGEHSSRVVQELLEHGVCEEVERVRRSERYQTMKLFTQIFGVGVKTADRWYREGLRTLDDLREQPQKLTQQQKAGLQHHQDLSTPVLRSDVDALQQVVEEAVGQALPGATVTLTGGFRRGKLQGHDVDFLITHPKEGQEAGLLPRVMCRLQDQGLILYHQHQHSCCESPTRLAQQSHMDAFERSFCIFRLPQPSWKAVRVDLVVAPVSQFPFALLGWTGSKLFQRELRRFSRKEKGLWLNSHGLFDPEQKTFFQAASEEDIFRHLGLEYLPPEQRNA
T1 sequence (Q9NP87 other isoform, or with tags, fused parts or gaps K438A;Q441A;del398-410 | K438A Q441A K438A Q441A): as the sequence (Q9NP87 other isoform, or with tags, fused parts or gaps del398-410) above, with K290A, Q293A counted along it
DNA polymerase mu core domain Q441A, sequence (Q9NP87 other isoform, or with tags, fused parts or gaps Q441A;del398-410 | Q441A Q441A): as the sequence (Q9NP87 other isoform, or with tags, fused parts or gaps del398-410) above, with Q293A counted along it

B1: 1-nt gapped DNA, templating T (crystallization) (dsDNA)
DNA 1: CGGCTTACG
DNA 2: CGTA
DNA 3: GCCG
modifications: 5'-phosphate on downstream primer
binding result [1]: binds | binding result [2]: binds | binding result [3]: binds

B2: 1-nt gapped DNA after dGTP insertion (T:G product) (dsDNA)
DNA 1: CGGCTTACG
DNA 2: CGTAG
DNA 3: GCCG
modifications: 5'-phosphate on downstream primer
binding result [4]: binds

B3: 2-nt gapped DNA, templating TT (crystallization) (dsDNA)
DNA 1: CGGCTTTACG
DNA 2: CGTA
DNA 3: GCCG
modifications: 5'-phosphate on downstream primer
binding result [5]: binds

Reference: PMC8213813, “Mechanism of genome instability mediated by human DNA polymerase mu misincorporation”
